Columns and labels:
Type in all cases: binding
[1] = target: Transferrin (human) (Homo sapiens, UniProt P02787); assay: detection of glycoprotein by Western blotting with biotin-labeled lectin; set-up: key: ◯: Detected; X: Not detected; details: (4) Transferrin (human), N-linked glycan not including α1→6 L-fucose; biotin-labeled lectin 2 μg/ml
Method: (§1) PTL of Example 1, SRL of Example 2, AAL of Comparison Example 1, AOL of Comparison Example 2, and LCA of Comparison Example 3 all subjected to biotin-labeling.
(§2) Lectin was measured and was dissolved in 0.1 M sodium hydrogen carbonate solution (5 mg/ml). Then, a biotinylation reagent was dissolved in dimethyl sulfoxide and the resultant solution was added to lectin solution to cause reaction therebetween. Then, the reactant was […] and lyophilized, thereby obtain biotin-labeled lectin.
(§3) The solution obtained by dissolving the glycoprotein sample in 10 mM phosphate buffered saline (pH 7.4, PBS) at 2 mg/ml was dispensed to a microtube by a unit of 18 μl. 6 μl of SDS process liquid (Sample Buffer Solution (2ME−); Wako Pure Chemical Industries, Ltd.) and 1.25 μl of 2-mercaptoethanol (Bio-Rad Laboratories, Inc.) was added to each dispensed fluid and the resultant mixture was boiled for 5 minutes.
(§4) The film was immersed in 10 mM Tris buffer solution including 0.8% NaCl added with 1% BSA (pH 7.4, 1% BSA+TBS) and was shaken at a room temperature for one hour. Then, the film was cleaned three times by 10 mM Tris buffer solution (pH 7.4, TBS) including 0.8% NaCl. Then, the film was immersed in biotin-labeled lectin solution (2 μg/ml) and was shaken at a room temperature for one hour. Then, the film was cleaned three times by TBS. Then, the film was immersed in the HRP label streptavidin solution at 1 μg/ml (Vector Laboratories) and was shaken at a room temperature for 30 minutes. After the film was cleaned three times by TBS, a POD immunostain set (Wako Pure Chemical Industries, Ltd.) was used to perform a staining test. The staining test is to detect glycoprotein by the western blotting using biotin-labeled lectin. FIG. 13 to FIG. 17 are photographs showing the following glycoproteins stained by PTL (FIG. 13), SRL (FIG. 14), AAL (FIG. 15), AOL (FIG. 16), or LCA (FIG. 17).
(§5) In FIG. 13 to FIG. 17, the lanes 0 to 6 correspond to the followings. Lane 1: thyroglobulin, lane 2: lactoferrin, lane 3: immune immunoglobulin, lane 4: transferrin, lane 5: α1-acidic glycoprotein, lane 6: invertase, lane 0: bovine serum albumin (control)

[2] = target: Thyroglobulin (pig) (Sus scrofa, UniProt F1RRV3); assay: as above; set-up: key: ◯: Detected; X: Not detected; details: (1) Thyroglobulin (pig), N-linked glycan having α1→6 L-fucose; biotin-labeled lectin 2 μg/ml
Thyroglobulin (pig), sequence (F1RRV3 20-2692): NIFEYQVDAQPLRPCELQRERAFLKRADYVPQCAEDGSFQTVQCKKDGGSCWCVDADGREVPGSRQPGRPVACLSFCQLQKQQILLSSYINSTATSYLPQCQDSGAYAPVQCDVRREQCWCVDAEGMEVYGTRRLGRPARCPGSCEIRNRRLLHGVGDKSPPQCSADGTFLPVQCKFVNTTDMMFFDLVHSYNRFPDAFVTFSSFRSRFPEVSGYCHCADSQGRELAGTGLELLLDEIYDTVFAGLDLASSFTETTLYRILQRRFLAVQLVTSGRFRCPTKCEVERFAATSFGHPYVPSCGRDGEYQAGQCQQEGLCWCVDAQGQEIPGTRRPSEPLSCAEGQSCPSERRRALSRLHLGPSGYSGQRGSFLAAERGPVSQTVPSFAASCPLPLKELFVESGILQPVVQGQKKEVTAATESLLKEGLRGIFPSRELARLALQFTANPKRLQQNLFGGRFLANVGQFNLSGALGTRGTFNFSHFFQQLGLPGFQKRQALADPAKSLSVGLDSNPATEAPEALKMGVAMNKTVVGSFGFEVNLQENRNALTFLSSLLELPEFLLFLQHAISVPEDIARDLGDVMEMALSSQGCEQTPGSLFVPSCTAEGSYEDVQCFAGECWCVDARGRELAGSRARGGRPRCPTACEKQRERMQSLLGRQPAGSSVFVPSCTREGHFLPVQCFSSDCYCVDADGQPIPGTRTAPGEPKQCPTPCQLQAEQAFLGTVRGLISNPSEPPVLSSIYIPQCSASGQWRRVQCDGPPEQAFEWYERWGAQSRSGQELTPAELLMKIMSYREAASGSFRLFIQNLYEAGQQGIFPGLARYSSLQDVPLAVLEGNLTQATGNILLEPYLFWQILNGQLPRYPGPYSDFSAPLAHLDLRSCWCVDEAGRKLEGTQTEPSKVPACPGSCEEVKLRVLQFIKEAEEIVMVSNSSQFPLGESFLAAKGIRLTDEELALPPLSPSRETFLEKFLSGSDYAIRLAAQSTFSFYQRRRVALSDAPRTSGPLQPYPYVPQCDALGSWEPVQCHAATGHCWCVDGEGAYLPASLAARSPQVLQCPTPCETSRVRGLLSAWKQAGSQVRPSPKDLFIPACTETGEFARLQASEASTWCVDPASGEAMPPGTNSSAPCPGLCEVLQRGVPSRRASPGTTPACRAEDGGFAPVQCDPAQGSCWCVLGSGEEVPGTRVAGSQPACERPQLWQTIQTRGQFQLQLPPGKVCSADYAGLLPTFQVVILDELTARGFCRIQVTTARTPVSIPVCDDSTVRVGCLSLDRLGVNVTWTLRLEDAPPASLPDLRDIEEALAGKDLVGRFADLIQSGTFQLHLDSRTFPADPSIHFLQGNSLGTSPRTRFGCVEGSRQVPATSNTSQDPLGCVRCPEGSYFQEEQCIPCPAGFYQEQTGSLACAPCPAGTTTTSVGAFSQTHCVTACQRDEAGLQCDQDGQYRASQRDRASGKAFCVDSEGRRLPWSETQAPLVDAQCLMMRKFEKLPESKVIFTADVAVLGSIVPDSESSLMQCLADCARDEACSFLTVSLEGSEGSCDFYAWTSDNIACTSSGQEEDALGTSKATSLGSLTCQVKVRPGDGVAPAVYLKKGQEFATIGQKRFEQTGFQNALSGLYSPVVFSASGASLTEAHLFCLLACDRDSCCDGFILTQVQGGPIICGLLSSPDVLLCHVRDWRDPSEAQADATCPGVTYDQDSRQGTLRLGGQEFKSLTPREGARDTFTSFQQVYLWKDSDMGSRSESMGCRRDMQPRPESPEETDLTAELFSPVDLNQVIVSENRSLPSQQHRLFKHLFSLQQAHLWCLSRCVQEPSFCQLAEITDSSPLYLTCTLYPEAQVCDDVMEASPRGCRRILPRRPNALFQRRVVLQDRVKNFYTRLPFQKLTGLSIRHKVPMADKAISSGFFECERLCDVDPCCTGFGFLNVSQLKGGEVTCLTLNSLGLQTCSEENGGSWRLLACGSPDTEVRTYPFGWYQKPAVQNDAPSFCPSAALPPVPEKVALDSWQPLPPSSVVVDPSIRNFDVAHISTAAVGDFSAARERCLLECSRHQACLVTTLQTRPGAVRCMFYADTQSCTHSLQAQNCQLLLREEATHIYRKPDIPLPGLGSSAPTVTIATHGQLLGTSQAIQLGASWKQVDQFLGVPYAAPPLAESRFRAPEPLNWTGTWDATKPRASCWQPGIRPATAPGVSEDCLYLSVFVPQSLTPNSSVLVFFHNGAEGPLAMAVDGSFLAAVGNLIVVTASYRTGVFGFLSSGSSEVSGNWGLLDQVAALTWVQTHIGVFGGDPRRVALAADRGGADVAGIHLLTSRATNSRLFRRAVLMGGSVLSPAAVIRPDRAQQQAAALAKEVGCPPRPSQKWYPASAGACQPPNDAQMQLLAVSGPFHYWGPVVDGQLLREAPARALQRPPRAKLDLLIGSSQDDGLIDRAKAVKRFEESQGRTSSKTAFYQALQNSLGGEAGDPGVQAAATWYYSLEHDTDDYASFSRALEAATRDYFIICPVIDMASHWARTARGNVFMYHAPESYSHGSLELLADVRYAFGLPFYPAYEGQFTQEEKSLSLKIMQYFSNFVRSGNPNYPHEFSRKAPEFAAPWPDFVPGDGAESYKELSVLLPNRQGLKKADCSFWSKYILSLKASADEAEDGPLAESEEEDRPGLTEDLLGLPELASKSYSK
Method: as §1, §2, §3, §4, §5

[3] = test system: α1-acidic glycoprotein (human); assay: as above; set-up: key: ◯: Detected; X: Not detected; details: (5) α1-acidic glycoprotein (human), N-linked glycan having α1→3 L-fucose; biotin-labeled lectin 2 μg/ml
Method: as §1, §2, §3, §4, §5

[4] = target: T1, Invertase (yeast) (Saccharomyces cerevisiae, UniProt P00724); assay: as above; set-up: key: ◯: Detected; X: Not detected; details: (6) Invertase (yeast), High mannose-type sugar chain; biotin-labeled lectin 2 μg/ml
T1 sequence (P00724 20-532): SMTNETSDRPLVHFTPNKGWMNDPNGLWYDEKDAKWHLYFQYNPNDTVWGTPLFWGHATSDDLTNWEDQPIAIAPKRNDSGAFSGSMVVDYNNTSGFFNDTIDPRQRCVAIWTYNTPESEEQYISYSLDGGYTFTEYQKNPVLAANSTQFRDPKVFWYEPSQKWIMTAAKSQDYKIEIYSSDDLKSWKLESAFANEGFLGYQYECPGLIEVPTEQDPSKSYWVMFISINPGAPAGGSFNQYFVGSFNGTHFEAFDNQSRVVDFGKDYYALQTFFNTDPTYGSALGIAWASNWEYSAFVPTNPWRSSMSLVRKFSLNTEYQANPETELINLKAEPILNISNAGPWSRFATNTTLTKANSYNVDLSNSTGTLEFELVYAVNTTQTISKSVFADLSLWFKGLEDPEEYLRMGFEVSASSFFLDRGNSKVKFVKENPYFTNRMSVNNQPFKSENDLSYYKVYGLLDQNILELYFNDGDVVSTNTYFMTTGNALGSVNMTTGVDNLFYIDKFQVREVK
Method: as §1, §2, §3, §4, §5

[5] = test system: Immune-globulin G (human); assay: as above; set-up: key: ◯: Detected; X: Not detected; details: (3) Immune-globulin G (human), N-linked glycan having α1→6 L-fucose; biotin-labeled lectin 2 μg/ml
Method: as §1, §2, §3, §4, §5

[6] = target: Lactoferrin (human) (Homo sapiens, UniProt P02788); assay: detection of glycoproteins by ELISA with biotin-labeled lectin; details: (2) Lactoferrin (human), N-linked glycan chain having α1→6 L-fucose; thyroglobulin value = 100%
Lactoferrin (human), sequence (P02788 20-710): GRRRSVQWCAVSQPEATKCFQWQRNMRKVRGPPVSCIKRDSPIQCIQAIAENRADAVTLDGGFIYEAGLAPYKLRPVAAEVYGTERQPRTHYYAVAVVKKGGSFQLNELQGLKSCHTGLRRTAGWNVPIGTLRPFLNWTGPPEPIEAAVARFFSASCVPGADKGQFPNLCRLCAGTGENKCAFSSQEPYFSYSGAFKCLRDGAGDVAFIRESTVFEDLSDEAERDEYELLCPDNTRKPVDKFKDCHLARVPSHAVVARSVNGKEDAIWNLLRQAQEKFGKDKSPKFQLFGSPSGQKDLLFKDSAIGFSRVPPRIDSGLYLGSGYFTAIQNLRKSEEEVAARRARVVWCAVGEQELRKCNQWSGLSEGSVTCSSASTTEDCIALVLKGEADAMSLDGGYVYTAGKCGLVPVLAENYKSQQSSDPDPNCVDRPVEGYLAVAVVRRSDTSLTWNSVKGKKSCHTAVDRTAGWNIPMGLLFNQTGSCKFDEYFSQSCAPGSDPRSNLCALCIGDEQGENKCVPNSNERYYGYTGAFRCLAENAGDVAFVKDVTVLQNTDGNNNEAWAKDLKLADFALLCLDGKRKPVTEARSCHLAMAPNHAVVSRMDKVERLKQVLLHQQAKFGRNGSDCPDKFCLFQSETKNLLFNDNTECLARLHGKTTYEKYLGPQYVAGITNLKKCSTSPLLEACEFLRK
Method: (§6) PTL of Example 1, SRL of Example 2, AAL of Comparison Example 1, AOL of Comparison Example 2, and LCA of Comparison Example 3 that were biotin-labeled were used to the detection of glycoproteins by the enzyme-linked immunosorbent assay (ELISA).
(§7) The glycoprotein and albumin as protein not including a sugar chain as a control were dissolved in 0.1 M carbonic acid buffer solution (pH 9.5) at 1 mg/ml. Then, the resultant solution was added to a microtiter plate (Nunc 439454) and was incubated at 4 degrees C. overnight. Then, the resultant solution was cleaned by 0.05% Tween/PBS three times. Thereafter, 1% BSA/PBS was added to wells and the solution was incubated at 37 degrees C. for one hour. Then, after the solution was cleaned by 0.05% Tween/PBS three times, biotin labeled-lectin appropriately diluted by 1% BSA/0.05% Tween/PBS was added to the wells and the solution was incubated at 37 degrees C. for one hour. After the solution was cleaned by 0.05% Tween/PBS three times, HRP labeled streptavidin solution diluted by 1% BSA/0.05% Tween/PBS was added to wells and the solution was incubated at 37 degrees C. for 30 minutes. After the solution was cleaned by 0.05% Tween/PBS three times, TMB Peroxidase substrate system (KPL) was added and the resultant solution was incubated at a room temperature for 10 minutes while light was being blocked.
(§8) The reaction was stopped by 1 M phosphoric acid. Then, a microplate reader (MPR-A4i, TOSOH CORPORATION) was used to measure the absorbance at 450 nm. Based on this value, reaction value ([absorbance at 450 nm of a well for which glycoprotein was solid-phased to the plate and reacted]−[absorbance at 450 nm of a well for which glycoprotein was not solid-phased to the plate and reacted] was calculated. Next, for each lectin, the interaction strength (relative value) to each glycoprotein was calculated based on an assumption that the glycoprotein (thyroglobulin) value was 100%. The calculation result is shown in Table 9 and FIG. 19 to FIG. 23.

[7] = target: T1, Invertase (yeast); assay: as above; details: (6) Invertase (yeast), High mannose-type glycan; thyroglobulin value = 100%
Method: as §6, §7, §8

[8] = test system: Mucin (pig); assay: as above; details: (7) Mucin (pig), O-linked glycan including L-fucose; thyroglobulin value = 100%
Method: as §6, §7, §8

Transferrin (human), sequence (P02787 20-698): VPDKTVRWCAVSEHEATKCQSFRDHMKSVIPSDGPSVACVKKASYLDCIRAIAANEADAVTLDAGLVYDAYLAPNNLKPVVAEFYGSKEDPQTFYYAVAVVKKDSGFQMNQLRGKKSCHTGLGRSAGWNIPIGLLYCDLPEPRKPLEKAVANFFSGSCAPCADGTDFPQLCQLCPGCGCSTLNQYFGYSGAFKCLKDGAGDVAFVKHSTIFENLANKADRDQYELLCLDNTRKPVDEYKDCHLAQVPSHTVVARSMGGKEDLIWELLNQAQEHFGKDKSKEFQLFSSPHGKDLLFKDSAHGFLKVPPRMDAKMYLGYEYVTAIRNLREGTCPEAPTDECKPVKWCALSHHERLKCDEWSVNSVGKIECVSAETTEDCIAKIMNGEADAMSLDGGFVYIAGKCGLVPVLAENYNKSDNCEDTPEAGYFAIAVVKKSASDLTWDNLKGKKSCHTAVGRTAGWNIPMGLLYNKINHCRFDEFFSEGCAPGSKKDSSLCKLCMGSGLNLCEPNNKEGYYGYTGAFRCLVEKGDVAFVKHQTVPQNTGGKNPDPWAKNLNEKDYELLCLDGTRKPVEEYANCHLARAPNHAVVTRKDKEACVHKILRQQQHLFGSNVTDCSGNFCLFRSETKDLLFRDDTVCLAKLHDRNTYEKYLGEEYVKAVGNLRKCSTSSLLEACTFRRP

| Molecule | detection of glycoprotein by Western blotting [1] | detection of glycoprotein by Western blotting [2] | detection of glycoprotein by Western blotting [3] | detection of glycoprotein by Western blotting [4] | detection of glycoprotein by Western blotting [5] | interaction strength (relative value) by ELISA [6] | interaction strength (relative value) by ELISA [7] | interaction strength (relative value) by ELISA [8] |
| --- | --- | --- | --- | --- | --- | --- | --- | --- |
| Pholiota terrestris lectin [PTL, novel L-fucose α1→6 specific lectin purified from the mushroom Pholiota terrestris] | X | ◯ | X | X | ◯ | ⊚ (Relative values of 120 to 80) | X (Relative values of 10 or less) | X (Relative values of 10 or less) |
| Stropharia rugosoannulata lectin [SRL, novel L-fucose α1→6 specific lectin purified from the mushroom Stropharia rugosoannulata] | X | ◯ | X | X | ◯ | ◯ (Relative values of 80 to 50) | X (Relative values of 10 or less) | X (Relative values of 10 or less) |
| Aspergillus oryzae lectin [AOL, reference compound] | X | ◯ | X | X | ◯ | ◯ (Relative values of 80 to 50) | X (Relative values of 10 or less) | ⊚ (Relative values of 120 to 80) |
| Aleuria aurantia lectin (protein) PTEFLYTSKIAAISWAATGGRQQRVYFQDLNGKIREAQRGGDNPWTGGSSQNVIGEAKLFSPLAAVTWKSAQGIQIRVYCVNKDNILSEFVYDGSKWITGQLGSVGVKVGSNSKLAALQWGGSESAPPNIRVYYQKSNGSGSSIHEYVWSGKWTAGASFGSTVPGTGIGATAIGPGRLRIYYQATDNKIREHCWDSNSWYVGGFSASASAGVSIAAISWGSTPNIRVYWQKGREELYEAAYGGSWNTPGQIKDASRPTPSLPDTFIAANSSGNIDISVFFQASGVSLQQWQWISGKGWSIGAVVPTGTPAGW | X | ◯ | X | X | ◯ | ◯ (Relative values of 80 to 50) | X (Relative values of 10 or less) | ⊚ (Relative values of 120 to 80) |
| Lens culinaris agglutinin (protein) chain 1: TETTSFSITKFSPDQKNLIFQGDGYTTKGKLTLTKAVKSTVGRALYSTPIHIWDRDTGNVANFVTSFTFVIDAPSSYNVADEFTFFIAPVDTKPQTGGGYLGVFNSKEYDKTSQTVAVEFDTFYNAAWDPSNKERHIGIDVNSIKSVNTKSWNLQNGERANVVIAFNAATNVLTVTLTYP chain 2: VTSYTLNEVVPLKDVVPEWVRIGFSATTGAEFAAHEVHSWSFHSELGGTSSS | X | ◯ | X | ◯ | ◯ | ◯ (Relative values of 80 to 50) | X (Relative values of 10 or less) | X (Relative values of 10 or less) |
